Molecular target: T1, TNF-β (lymphotoxin) (UniProt P01374 35-205, limits assumed)
T1 sequence (looked up): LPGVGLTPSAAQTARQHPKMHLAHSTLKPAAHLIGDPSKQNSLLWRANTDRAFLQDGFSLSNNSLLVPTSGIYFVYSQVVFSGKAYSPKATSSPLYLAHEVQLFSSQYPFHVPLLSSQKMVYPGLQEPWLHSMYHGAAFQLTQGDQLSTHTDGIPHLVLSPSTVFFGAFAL
Test: preliminary tests, analogous to the competition binding test

B1: TNF-binding protein (TNF-BP), natural, purified from dialyzed urine of uraemia patients (receptor)
chain: DSVCPQGKYIHPQNNSICCTKCHKGTYLYNDCPGPGQDTDCRECESGSFTASENHLRHCLSCSKCRKEMGQVEISSCTVDRDTVCGCRKNQYRHYWSENLFQCFNCSLCLNGTVHLSCQEKQNTVCTCHAGFFLRENECVSCSNCKKSLECTKLCLPQIEN
modifications: glycoprotein; Asn-25 glycosylated (numbering of the TNF-BP cDNA sequence, Leu-1 = first residue after the signal peptide)
notes: Main form (about 80 %) starts at Asp-12; In the preliminary tests it was used as concentrated dialyzed urine or partly purified preparations
affinity for TNF-β relative to its affinity for TNF-α: ~0.02 ratio (affinity for TNF-β / affinity for TNF-α)

— US7282483 (Amgen, dated 2007)
